Laboratory results: patent publication US20230277682A1 (priority 2022, published 2023)

System: H1N1 A/Puerto Rico/08/1934 influenza virus
Type: cell-based

B1: mAb11729 (antibody, V domains shown)
VH: QVQLVQSGAEVKKSGSSVKVSCKASGGTFSSYAISWVRQAPGQGLEWMGGIIPIFGTPSYAQKFQDRVTITTDESTSTVYMELSSLRSEDTAVYYCARQQPVYQYNMDVWGQGTTVTVSS
VL: DIQMTQSPSSLSASVGDRVTITCRASQGIRNNLGWYQQKPLKAPKRLIYAASSLQSGVPSRFSGSGSGTEFTLTISSLQPEDFATYYCLQYNNYPWTFGQGTKVEIK
  antiviral activity against H1N1 in vitro: displays antiviral activity against H1N1 in vitro

B2: 11729-HC-Cterm-LLQGA-19b (conjugate)
heavy: QVQLVQSGAEVKKSGSSVKVSCKASGGTFSSYAISWVRQAPGQGLEWMGGIIPIFGTPSYAQKFQDRVTITTDESTSTVYMELSSLRSEDTAVYYCARQQPVYQYNMDVWGQGTTVTVSSLLQGA
VL: DIQMTQSPSSLSASVGDRVTITCRASQGIRNNLGWYQQKPLKAPKRLIYAASSLQSGVPSRFSGSGSGTEFTLTISSLQPEDFATYYCLQYNNYPWTFGQGTKVEIK
modifications: left off: a dimerising Fc or GST
  Fold Increase over Parental Antibody: 15.76 fold

B3: 11729-HC-Cterm-LLQGA-10b (conjugate)
heavy: QVQLVQSGAEVKKSGSSVKVSCKASGGTFSSYAISWVRQAPGQGLEWMGGIIPIFGTPSYAQKFQDRVTITTDESTSTVYMELSSLRSEDTAVYYCARQQPVYQYNMDVWGQGTTVTVSSLLQGA
VL: DIQMTQSPSSLSASVGDRVTITCRASQGIRNNLGWYQQKPLKAPKRLIYAASSLQSGVPSRFSGSGSGTEFTLTISSLQPEDFATYYCLQYNNYPWTFGQGTKVEIK
modifications: left off: a dimerising Fc or GST
  Fold Increase over Parental Antibody: 6.96 fold

B4: 11729-HC-Cterm-LLQGA-19C (conjugate)
heavy: QVQLVQSGAEVKKSGSSVKVSCKASGGTFSSYAISWVRQAPGQGLEWMGGIIPIFGTPSYAQKFQDRVTITTDESTSTVYMELSSLRSEDTAVYYCARQQPVYQYNMDVWGQGTTVTVSSLLQGA
VL: DIQMTQSPSSLSASVGDRVTITCRASQGIRNNLGWYQQKPLKAPKRLIYAASSLQSGVPSRFSGSGSGTEFTLTISSLQPEDFATYYCLQYNNYPWTFGQGTKVEIK
modifications: left off: a dimerising Fc or GST
  Fold Increase over Parental Antibody: 28.78 fold

B5: 11729-HC-Cterm-LLQGA-19a (conjugate)
heavy: QVQLVQSGAEVKKSGSSVKVSCKASGGTFSSYAISWVRQAPGQGLEWMGGIIPIFGTPSYAQKFQDRVTITTDESTSTVYMELSSLRSEDTAVYYCARQQPVYQYNMDVWGQGTTVTVSSLLQGA
VL: DIQMTQSPSSLSASVGDRVTITCRASQGIRNNLGWYQQKPLKAPKRLIYAASSLQSGVPSRFSGSGSGTEFTLTISSLQPEDFATYYCLQYNNYPWTFGQGTKVEIK
modifications: left off: a dimerising Fc or GST
  Fold Increase over Parental Antibody: 7.75 fold
